Values of other authors as cited in article PMC10747851.
pKd: −log10 of the molar value.

Target: TfR (Homo sapiens) (UniProt P02786)
Sequence (P02786 89-760): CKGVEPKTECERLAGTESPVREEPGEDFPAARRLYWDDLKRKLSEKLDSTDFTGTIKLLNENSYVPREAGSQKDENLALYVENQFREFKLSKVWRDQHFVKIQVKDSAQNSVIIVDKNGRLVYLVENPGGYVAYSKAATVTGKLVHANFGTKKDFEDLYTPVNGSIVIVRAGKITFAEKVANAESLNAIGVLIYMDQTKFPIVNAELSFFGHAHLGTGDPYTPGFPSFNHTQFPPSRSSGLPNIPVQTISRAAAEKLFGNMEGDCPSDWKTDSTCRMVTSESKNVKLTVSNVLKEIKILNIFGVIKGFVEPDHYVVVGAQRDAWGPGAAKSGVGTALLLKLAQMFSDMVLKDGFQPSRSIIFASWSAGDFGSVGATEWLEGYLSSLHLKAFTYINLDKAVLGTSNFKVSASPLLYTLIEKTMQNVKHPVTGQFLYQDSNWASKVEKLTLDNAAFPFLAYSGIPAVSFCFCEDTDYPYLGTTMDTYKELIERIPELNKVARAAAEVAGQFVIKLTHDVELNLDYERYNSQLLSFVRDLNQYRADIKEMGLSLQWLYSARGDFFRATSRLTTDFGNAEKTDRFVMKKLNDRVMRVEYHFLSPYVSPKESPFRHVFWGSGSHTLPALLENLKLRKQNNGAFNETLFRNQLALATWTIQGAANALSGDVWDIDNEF

- pKd: 8.00
Substance: T7 peptide
